Measurements published in publication PMC11773481.

Target: purified recombinant DPP9-FLAG, Q86TI2
Assay: SEC + native gel or EMSA; protein expressed alone in Expi293F, purified by anti-FLAG IP, Superdex 200 Increase 10/300 GL; BN-PAGE immunoblot
Settings: remark: other sources report otherwise

B1: purified recombinant DPP9-FLAG, Q86TI2 1-863 (enzyme)
chain: MATTGTPTADRGDAAATDDPAARFQVQKHSWDGLRSIIHGSRKYSGLIVNKAPHDFQFVQKTDESGPHSHRLYYLGMPYGSRENSLLYSEIPKKVRKEALLLLSWKQMLDHFQATPHHGVYSREEELLRERKRLGVFGITSYDFHSESGLFLFQASNSLFHCRDGGKNGFMVSPMKPLEIKTQCSGPRMDPKICPADPAFFSFINNSDLWVANIETGEERRLTFCHQGLSNVLDDPKSAGVATFVIQEEFDRFTGYWWCPTASWEGSEGLKTLRILYEEVDESEVEVIHVPSPALEERKTDSYRYPRTGSKNPKIALKLAEFQTDSQGKIVSTQEKELVQPFSSLFPKVEYIARAGWTRDGKYAWAMFLDRPQQWLQLVLLPPALFIPSTENEEQRLASARAVPRNVQPYVVYEEVTNVWINVHDIFYPFPQSEGEDELCFLRANECKTGFCHLYKVTAVLKSQGYDWSEPFSPGEDEFKCPIKEEIALTSGEWEVLARHGSKIWVNEETKLVYFQGTKDTPLEHHLYVVSYEAAGEIVRLTTPGFSHSCSMSQNFDMFVSHYSSVSTPPCVHVYKLSGPDDDPLHKQPRFWASMMEAASCPPDYVPPEIFHFHTRSDVRLYGMIYKPHALQPGKKHPTVLFVYGGPQVQLVNNSFKGIKYLRLNTLASLGYAVVVIDGRGSCQRGLRFEGALKNQMGQVEIEDQVEGLQFVAEKYGFIDLSRVAIHGWSYGGFLSLMGLIHKPQVFKVAIAGAPVTVWMAYDTGYTERYMDVPENNQHGYEAGSVALHVEKLPNEPNRLLILHGFLDENVHFFHTNFLVSQLIRAGKPYQLQIYPNERHSIRCPESGEHYEVTLLHFLQEYL
stoichiometry N: 2
